From US20070178448A1 (Scripps Research, published 2007)
Non-standard residues stand in square brackets, D forms with d. No end group written: not given here. Phe(4-Ac) = CC(=O)c1ccc(C[C@H](N)C(=O)O)cc1

Molecular target: T1, streptavidin (UniProt P22629 37-163, limits assumed)
T1 construct: also called streptavidin coated microtiter plates (Pierce); strepavidin
Test: phage capture on streptavidin coated wells, elution with 10 µM biotin, titer of input and output phage
Description: In a model phage selection experiment, wild-type phage and phage carrying the mutant SBP with p-azido-L-phenylalanine were exposed to streptavidin coated wells, followed by recovery of the bound phage. Titer of the recovered enriched phage following elution was used as a measure of the binding specificity of the page for the streptavidin.
Specifically, two wells from a streptavidin coated microtiter plate (Pierce) were blocked with 300 μL of 4% BSA in 1×PBS at 4° C. overnight. After washing, separate streptavidin coated wells were incubated with similar numbers of phage (each in 100 μL) of either M13KE-SBP prepared in TTS/RS 3 or M13KE wild type phage at room temperature for 2 hours and washed 10 times with 200 μL PBST. The bound phage was eluted from the plate solid support with 10 μM biotin 1×PBS, pH 7.4. The input and output phage were titered (see, FIG. 9).

T1 sequence (P22629 37-163 limits assumed): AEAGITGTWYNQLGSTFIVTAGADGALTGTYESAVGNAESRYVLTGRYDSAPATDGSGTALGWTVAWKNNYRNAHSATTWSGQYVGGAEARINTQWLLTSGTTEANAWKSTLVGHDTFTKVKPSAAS

B1: M13KE-SBP phage prepared in TTS/RS 3 in the presence of p-acetylphenylalanine 3 (streptavidin binding peptide AGXTLLAHPQ, X = p-acetyl-L-phenylalanine, as … (peptide)
chain: AG[Phe(4-Ac)]TLLAHPQ
modifications: not fully specified (C-terminus)
notes: also called M13KE-SBP phage prepared in TTS/p-acetylphenylalanine 3; M13KE-SBP prepared in TTS/RS 3; not shown: pIII minor coat protein of M13 filamentous phage (vector M13KE); peptide fused at its N-terminus after the signal peptid
recovery rate, fold over that of M13KE wild-type phage: 9000 fold
